Test results published in patent US20060286032A1, “A radiosotope-chitosan complex for treatment of prostate cancer” (priority 2003, published 2006).
“Also recorded” adds a separate entry of the source. Marks after values point to notes of the source that are not given here.

Legend:
[1] = tested on: DU-145 carcinoma cell line (hormone-independent prostate carcinoma cell line); assay: Antitumor effect in DU-145 subcutaneous tumor model, intratumoral injection; type: in vivo, nude mice; details: for Tumor volume after injection: intratumoral; for Tumor growth inhibition rate: last day of the test (2 wks), tumor volume vs control
Protocol: To investigate the effect of the complex on hormone-independent prostate cancer, a DU-145 carcinoma cell line (hormone-independent prostate carcinoma cell line), which is rarely produces prostate-specific antigen, was transplanted into nude mice and the antitumor effect of the complex was evaluated.
The DU-145 cells were cultured in 10% FBS (fetal bovine serum)-containing F-12K(Kaign's Modification of Ham's F-12 medium) in a 5% CO2 incubator at 37° C., and 2×10^5 cells/0.2 ml/head were subcutaneously transplanted into the lumbar portion of male 6-week nude mice. When the long axis of the tumor was about 1 cm long, the complex solution was intratumorally injected. The administration volume of the test drug was 0.2 ml. The mice were divided into four groups: a control group (no treatment); two administration groups administered with the complex solution at doses of 10 mCi and 20 mCi per 1 cm^3 tumor; and another administration group administered with a non-radioactive complex solution [Holmium-165 (^165Ho)-chitosan complex solution]. Two weeks after administration with the complex solution, the mice were histopathologically examined to evaluate the antitumor effect and toxicity to major organs of the complex.

[2] = Whole-body autoradiography after injection of 25 μl or 50 μl complex solution into the prostate gland; type: in vivo, male SD rats
Protocol: After one week acclimation, male SD rats were anesthetized with diethylether, and an about 2-cm midline incision was made in the lower abdomen of the pubis. After the prostate gland was exposed along with the bladder, 25 μl and 50 μl (each about 100 μCi) of the complex solution prepared in Example 2 were individually administered to the prostate gland using a syringe. After the rats were sacrificed 0.5 hr and 6 hrs after administration, cryosections were prepared, and whole-body autoradiography was carried out to measure radioactive concentrations in the liver, spleen, kidney, the end region of the femur, spine and administration sites. The measured radioactive concentrations (% ID/g) in various organs after injection of the complex solution are given in Table 1, below.
Numerals of Table 1 indicate mean+standard deviation (n=3).

[3] = Cumulative urinary and fecal excretion of radioactivity for 72 hrs after injection into the prostate gland; type: in vivo, SD rats; details: for Radioactivity remaining in Carcass / Radioactivity remaining in Prostate gland: 72 hr; for Total recovery rate: 72 hrs
Protocol: After the complex solution was administered to the prostate gland, cumulative urinary and fecal excretions of radioactivity were examined to investigate the amount of excreted ^166Ho. 25 μl of the test drug was administered to the prostate gland of SD rats, which was equal to about 100 μCi. The amount of radioactivity excreted for 72 hrs was measured. The rats were kept in metabolic cages made of a stainless material. Urine and feces were collected, and, 72 hrs after administration, the rats were sacrificed with diethylether. Radioactivity remaining in the carcass and the prostate gland was also measured.

[4] = tested on: AIT prostate carcinoma cells; assay: Antitumor effect in orthotopic tumor model, AIT transplanted into the prostate gland; type: in vivo, noble rats
Protocol: In addition to the subcutaneous tumor model tested in Experimental Example 6, the antitumor effect and side effects of the complex solution was examined in an orthotopic tumor model where AIT prostate carcinoma cells had been directly transplanted into the prostate gland. AIT cells were cultured in 10% FBS-containing DMEM at 37° under 5% CO2. The cultured carcinoma cells were suspended in sterile physiological saline at a density of 2×10^6 cells/0.05 ml. After noble rats were anesthetized with fentanyl and the abdomen was opened, 2×10^6 cells per rat were transplanted into the prostate gland of the rats. Seven days after carcinoma transplantation, the rats were randomly allocated. The kit prepared in Example 2 was used as a test drug, and 0.05 ml of the kit was administered. The rats were divided into four groups: a control group (no treatment); two administration groups administered with 0.5 mCi and 1.0 mCi of the complex solution; and another administration group administered with a non-radioactive complex solution (Holmium-165 (^165Ho)-chitosan complex solution). Two and four weeks after administration of the complex solution, the rats were sacrificed, and tumors were excised from the rats and weighed.

In the case of “Holmium-166 (^166Ho)-Chitosan Complex [complex solution]”, the “Tumor volume after injection” value ([1]; 10 mCi per 1 cm^3 tumor, 1 wk) is reported as 0.48 ± 0.35 cm^3, the “Tumor volume after injection” value ([1]; 10 mCi per 1 cm^3 tumor, 2 wks) is reported as 0.32 ± 0.20* cm^3 and the “Tumor growth inhibition rate” value ([1]; 10 mCi per 1 cm^3 tumor) is reported as 95.1%. The “Tumor volume after injection” value ([1]; 20 mCi per 1 cm^3 tumor, 1 wk) was 0.28 ± 0.04 cm^3, the “Tumor volume after injection” value ([1]; 20 mCi per 1 cm^3 tumor, 2 wks) was 0.09 ± 0.24* cm^3 and the “Tumor growth inhibition rate” value ([1]; 20 mCi per 1 cm^3 tumor) was 98.6%. The “Tumor growth inhibition rate” value ([1]; 20 mCi per 1 cm^3 tumor, listed as Complex) was 98.6%, the “Inhibitory activity against the tumor growth” value ([1]; subcutaneous tumor model) was “higher than 95%” and the “Radioactive concentration, Administration site” value ([2]; 25 μl administration, 30 min) was 4258 ± 732.9 % ID/g. The “Radioactive concentration, End region of femur” value ([2]; 25 μl administration, 30 min) was 0.05 ± 0.030 % ID/g, the “Radioactive concentration, Spine” value ([2]; 25 μl administration, 30 min) was 0.02 ± 0.009 % ID/g and the “Radioactive concentration, Administration site” value ([2]; 25 μl administration, 6 hrs) was 4478 ± 1212.4 % ID/g. The “Radioactive concentration, End region of femur” value ([2]; 25 μl administration, 6 hrs) was 0.16 ± 0.047 % ID/g, the “Radioactive concentration, Kidney” value ([2]; 25 μl administration, 6 hrs) was 0.01 ± 0.002 % ID/g and the “Radioactive concentration, Liver” value ([2]; 25 μl administration, 6 hrs) was 0.04 ± 0.015 % ID/g. The “Radioactive concentration, Spine” value ([2]; 25 μl administration, 6 hrs) was 0.04 ± 0.011 % ID/g, the “Radioactive concentration, Spleen” value ([2]; 25 μl administration, 6 hrs) was 0.03 ± 0.007 % ID/g and the “Radioactive concentration, Administration site” value ([2]; 50 μl administration, 30 min) was 3196 ± 212.5 % ID/g. For the same substance, the “Radioactive concentration, End region of femur” value ([2]; 50 μl administration, 30 min) was 0.05 ± 0.030 % ID/g, the “Radioactive concentration, Kidney” value ([2]; 50 μl administration, 30 min) was 0.02 ± 0.011 % ID/g and the “Radioactive concentration, Liver” value ([2]; 50 μl administration, 30 min) was 0.01 ± 0.007 % ID/g. For the same substance, the “Radioactive concentration, Spine” value ([2]; 50 μl administration, 30 min) was 0.02 ± 0.007 % ID/g, the “Radioactive concentration, Administration site” value ([2]; 50 μl administration, 6 hrs) was 3054 ± 1873.0 % ID/g and the “Radioactive concentration, End region of femur” value ([2]; 50 μl administration, 6 hrs) was 0.10 ± 0.065 % ID/g. The “Radioactive concentration, Kidney” value ([2]; 50 μl administration, 6 hrs) was 0.01 ± 0.001 % ID/g, the “Radioactive concentration, Liver” value ([2]; 50 μl administration, 6 hrs) was 0.03 ± 0.008 % ID/g and the “Radioactive concentration, Spine” value ([2]; 50 μl administration, 6 hrs) was 0.04 ± 0.018 % ID/g. For the same substance, the “Radioactive concentration, Spleen” value ([2]; 50 μl administration, 6 hrs) was 0.02 ± 0.014 % ID/g, the “Radioactivity detected in the administration site” value ([2]; 6 hrs after administration) was “over 90%” and the “Radioactivity in major organs including the liver, spleen and kidney” value ([2]; 6 hrs after administration) was “no radioactivity was detected”. For the same substance, the “Radioactivity in major organs including the liver, spleen and kidney” value ([2]; 6 hrs after administration, listed as radioisotope-chitosan complex) was “rarely detected”, the “Cumulative excretion, Urine” value ([3]; 0-3 hr, animal 1) was 0.03 % of dose and the “Cumulative excretion, Urine” value ([3]; 0-3 hr, animal 2) was 0.03 % of dose. For the same substance, the “Cumulative excretion, Urine” value ([3]; 0-3 hr, animal 3) was 0.04 % of dose, the “Cumulative excretion, Urine” value ([3]; 0-6 hr, animal 1) was 0.04 % of dose and the “Cumulative excretion, Urine” value ([3]; 0-6 hr, animal 2) was 0.04 % of dose. The “Cumulative excretion, Urine” value ([3]; 0-6 hr, animal 3) was 0.05 % of dose, the “Cumulative excretion, Urine” value ([3]; 0-24 hr, animal 1) was 0.11 % of dose and the “Cumulative excretion, Urine” value ([3]; 0-24 hr, animal 2) was 0.13 % of dose. The “Cumulative excretion, Urine” value ([3]; 0-24 hr, animal 3) was 0.17 % of dose, the “Cumulative excretion, Feces” value ([3]; 0-72 hr, Mean) was 0.11 % of dose and the “Cumulative excretion, Urine” value ([3]; 0-72 hr, Mean) was 0.35 % of dose. For the same substance, the “Cumulative excretion, Feces” value ([3]; 0-72 hr, animal 3) was 0.11 % of dose, the “Radioactivity remaining in Carcass” value ([3]; Mean) was 2.67 % of dose and the “Radioactivity remaining in Prostate gland” value ([3]; Mean) was 99.19 % of dose. The “Radioactivity remaining in Carcass” value ([3]; animal 1) was 2.32 % of dose, the “Radioactivity remaining in Prostate gland” value ([3]; animal 1) was 98.84 % of dose and the “Radioactivity remaining in Carcass” value ([3]; animal 2) was 3.27 % of dose. The “Radioactivity remaining in Prostate gland” value ([3]; animal 2) was 96.79 % of dose, the “Radioactivity remaining in Carcass” value ([3]; animal 3) was 2.42 % of dose and the “Radioactivity remaining in Prostate gland” value ([3]; animal 3) was 101.94 % of dose. The Total recovery rate ([3]; Mean) was 99.65%, the Total recovery rate ([3]; animal 1) was 99.23% and the Total recovery rate ([3]; animal 2) was 97.27%. For the same substance, the Total recovery rate ([3]; animal 3) was 102.46%, the Tumor weight ([4]; 0.5 mCi, 2 wks after administration) was 0.45 ± 0.07 g and the Tumor weight ([4]; 0.5 mCi, 4 wks after administration) was 1.58 ± 0.97 g. The Tumor weight ([4]; 1.0 mCi, 2 wks after administration) was 0.49 ± 0.08 g, the Tumor weight ([4]; 1.0 mCi, 4 wks after administration) was 1.09 ± 0.32 g and the “Effect on tumor growth” value ([4]; two weeks after administration, listed as present complex) was “showed an inhibitory effect against the tumor growth; also recorded: the tumor growth was suppressed”.
